Assay results published in patent publication US20090093061A1.

Key:
Assay in all cases: GroEL-490 bead column capture of denatured serum, ATP elution, LC-MS-MS
[1] = target: DNA fragmentation factor, 45 kD, alpha polypeptide (Homo sapiens) (UniProt O00273)
[2] = target: human immunodeficiency virus type I enhancer binding protein 2 (Homo sapiens) (UniProt P31629)
[3] = target: leucine-rich repeat-containing G protein-coupled receptor 6 (Homo sapiens) (UniProt Q9HBX8)
[4] = target: KIAA0804 protein (Homo sapiens) (UniProt Q8N3P4)
[5] = target: similar to hypothetical protein (Homo sapiens)
[6] = target: v-raf murine sarcoma 3611 viral oncogene homolog 1 (Homo sapiens) (UniProt P10398)
[7] = target: transferrin (Homo sapiens) (UniProt P02787)
[8] = target: serine (or cysteine) proteinase inhibitor, clade A (alpha-1 antiproteinase, antitrypsin), member 1 (UniProt P01009)
[9] = target: DNA polymerase theta isoform 1 (Homo sapiens) (UniProt O75417)
[10] = target: SPRY domain-containing SOCS box protein SSB-4 (Homo sapiens) (UniProt Q96A44)
[11] = target: integrin, beta 5 (Homo sapiens) (UniProt P18084)
[12] = target: hypothetical protein XP_378639 (Homo sapiens)
[13] = target: p47 protein isoform a (Homo sapiens) (UniProt Q9UNZ2)
Chain of p47 protein isoform a (Homo sapiens) (Q9UNZ2 whole entry, canonical isoform): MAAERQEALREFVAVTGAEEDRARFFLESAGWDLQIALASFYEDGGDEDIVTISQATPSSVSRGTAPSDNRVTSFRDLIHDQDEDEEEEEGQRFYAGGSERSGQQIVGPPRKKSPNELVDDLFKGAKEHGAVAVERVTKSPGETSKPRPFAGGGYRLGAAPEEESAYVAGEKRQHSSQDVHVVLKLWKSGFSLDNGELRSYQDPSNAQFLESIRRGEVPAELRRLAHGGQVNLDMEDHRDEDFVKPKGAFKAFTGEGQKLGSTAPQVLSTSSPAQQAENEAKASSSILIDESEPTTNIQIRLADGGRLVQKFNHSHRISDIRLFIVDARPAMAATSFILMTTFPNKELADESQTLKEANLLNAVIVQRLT

[14] = target: UDP glycosyltransferase 1 family, polypeptide A9 (Homo sapiens) (UniProt O60656)
[15] = target: Rho GTPase activating protein 5 (Homo sapiens) (UniProt Q13017)
Chain of Rho GTPase activating protein 5 (Homo sapiens) (Q13017 whole entry): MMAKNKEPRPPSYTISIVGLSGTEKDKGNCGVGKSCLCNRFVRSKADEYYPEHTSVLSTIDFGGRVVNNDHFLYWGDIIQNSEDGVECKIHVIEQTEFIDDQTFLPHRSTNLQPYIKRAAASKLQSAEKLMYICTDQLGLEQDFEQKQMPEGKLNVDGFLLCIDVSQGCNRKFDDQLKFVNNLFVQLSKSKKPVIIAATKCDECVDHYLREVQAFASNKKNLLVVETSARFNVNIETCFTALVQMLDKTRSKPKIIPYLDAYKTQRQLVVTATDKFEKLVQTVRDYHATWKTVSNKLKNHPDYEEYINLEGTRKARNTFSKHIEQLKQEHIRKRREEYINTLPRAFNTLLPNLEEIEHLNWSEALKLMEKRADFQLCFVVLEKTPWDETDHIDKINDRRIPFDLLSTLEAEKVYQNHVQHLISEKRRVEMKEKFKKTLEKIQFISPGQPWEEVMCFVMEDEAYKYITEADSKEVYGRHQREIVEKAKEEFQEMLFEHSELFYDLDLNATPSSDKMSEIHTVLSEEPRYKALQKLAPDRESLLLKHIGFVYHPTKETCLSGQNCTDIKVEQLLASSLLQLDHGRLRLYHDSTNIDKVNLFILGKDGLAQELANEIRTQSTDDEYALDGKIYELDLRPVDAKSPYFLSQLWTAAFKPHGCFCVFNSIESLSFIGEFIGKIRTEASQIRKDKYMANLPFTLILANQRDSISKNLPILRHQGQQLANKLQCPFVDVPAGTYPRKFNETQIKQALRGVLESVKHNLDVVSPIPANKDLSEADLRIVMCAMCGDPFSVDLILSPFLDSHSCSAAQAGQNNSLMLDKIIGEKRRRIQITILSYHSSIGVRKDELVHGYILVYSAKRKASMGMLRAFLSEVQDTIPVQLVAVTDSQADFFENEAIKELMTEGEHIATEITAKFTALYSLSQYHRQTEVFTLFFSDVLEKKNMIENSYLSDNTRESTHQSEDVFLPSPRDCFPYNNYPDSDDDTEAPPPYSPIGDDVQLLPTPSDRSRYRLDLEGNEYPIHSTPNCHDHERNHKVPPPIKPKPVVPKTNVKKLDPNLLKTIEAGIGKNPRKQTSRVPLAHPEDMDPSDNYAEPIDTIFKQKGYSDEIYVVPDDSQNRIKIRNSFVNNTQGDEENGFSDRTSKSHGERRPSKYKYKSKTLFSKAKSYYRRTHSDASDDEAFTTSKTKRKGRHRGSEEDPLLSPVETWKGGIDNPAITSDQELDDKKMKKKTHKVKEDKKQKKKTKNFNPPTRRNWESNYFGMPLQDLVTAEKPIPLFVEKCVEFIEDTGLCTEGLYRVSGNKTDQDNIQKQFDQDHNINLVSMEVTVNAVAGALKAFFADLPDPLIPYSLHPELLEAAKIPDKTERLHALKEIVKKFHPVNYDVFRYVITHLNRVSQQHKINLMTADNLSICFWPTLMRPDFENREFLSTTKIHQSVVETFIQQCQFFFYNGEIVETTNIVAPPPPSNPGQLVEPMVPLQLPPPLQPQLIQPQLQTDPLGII

[16] = target: apolipoprotein B precursor (Homo sapiens) (UniProt P04114)
[17] = target: complement component 4B proprotein (Homo sapiens) (UniProt P0C0L5)
Chain of complement component 4B proprotein (Homo sapiens) (P0C0L5 20-1744 limits assumed): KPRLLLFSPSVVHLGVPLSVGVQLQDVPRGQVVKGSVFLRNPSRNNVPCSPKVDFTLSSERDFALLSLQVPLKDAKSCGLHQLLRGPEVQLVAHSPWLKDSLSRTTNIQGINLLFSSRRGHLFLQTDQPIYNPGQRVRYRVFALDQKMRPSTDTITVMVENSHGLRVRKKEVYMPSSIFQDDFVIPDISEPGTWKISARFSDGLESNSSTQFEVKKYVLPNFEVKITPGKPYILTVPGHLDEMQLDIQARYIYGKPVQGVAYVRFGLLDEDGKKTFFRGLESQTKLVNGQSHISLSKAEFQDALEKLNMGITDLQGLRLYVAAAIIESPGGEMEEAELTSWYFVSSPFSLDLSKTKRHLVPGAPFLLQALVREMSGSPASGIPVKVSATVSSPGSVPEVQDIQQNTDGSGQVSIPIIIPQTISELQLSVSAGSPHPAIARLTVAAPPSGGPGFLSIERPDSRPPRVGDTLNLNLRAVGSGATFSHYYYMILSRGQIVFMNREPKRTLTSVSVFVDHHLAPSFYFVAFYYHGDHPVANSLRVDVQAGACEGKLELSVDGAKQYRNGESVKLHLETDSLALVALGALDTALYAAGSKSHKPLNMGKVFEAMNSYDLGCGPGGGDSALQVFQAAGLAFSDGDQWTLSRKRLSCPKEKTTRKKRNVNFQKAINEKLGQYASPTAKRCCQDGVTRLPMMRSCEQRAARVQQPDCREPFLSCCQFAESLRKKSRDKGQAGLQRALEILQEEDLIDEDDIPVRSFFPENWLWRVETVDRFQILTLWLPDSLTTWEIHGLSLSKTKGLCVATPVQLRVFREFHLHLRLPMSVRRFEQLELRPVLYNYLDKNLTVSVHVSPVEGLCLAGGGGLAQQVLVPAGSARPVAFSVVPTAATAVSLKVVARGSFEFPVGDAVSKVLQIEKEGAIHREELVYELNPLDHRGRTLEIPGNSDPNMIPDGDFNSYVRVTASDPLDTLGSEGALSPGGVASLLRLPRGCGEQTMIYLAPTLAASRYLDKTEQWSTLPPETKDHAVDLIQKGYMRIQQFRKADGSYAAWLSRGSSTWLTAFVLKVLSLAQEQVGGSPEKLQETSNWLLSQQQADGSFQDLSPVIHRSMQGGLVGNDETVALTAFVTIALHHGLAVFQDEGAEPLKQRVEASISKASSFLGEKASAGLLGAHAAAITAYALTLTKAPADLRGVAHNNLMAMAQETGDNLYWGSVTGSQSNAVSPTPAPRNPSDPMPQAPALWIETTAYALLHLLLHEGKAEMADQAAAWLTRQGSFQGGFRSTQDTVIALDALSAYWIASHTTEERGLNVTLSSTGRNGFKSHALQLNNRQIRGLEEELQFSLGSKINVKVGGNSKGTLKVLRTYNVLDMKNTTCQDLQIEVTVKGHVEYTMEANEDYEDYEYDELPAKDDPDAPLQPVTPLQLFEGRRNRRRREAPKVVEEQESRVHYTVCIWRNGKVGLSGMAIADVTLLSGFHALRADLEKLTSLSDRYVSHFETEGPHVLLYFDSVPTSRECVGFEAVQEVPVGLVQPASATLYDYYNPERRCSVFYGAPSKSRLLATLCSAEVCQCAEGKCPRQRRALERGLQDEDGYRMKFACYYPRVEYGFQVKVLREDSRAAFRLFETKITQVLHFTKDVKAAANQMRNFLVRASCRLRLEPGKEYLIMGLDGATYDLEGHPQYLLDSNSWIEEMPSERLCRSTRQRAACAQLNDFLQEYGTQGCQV

[18] = target: ankyrin repeat domain 26 (Homo sapiens) (UniProt Q9UPS8)
[19] = target: T1, similar to Nonhistone chromosomal protein HMG-14 (High-mobility group nucleosome binding domain 1) (Homo sapiens) (UniProt P05114)
T1 sequence (looked up): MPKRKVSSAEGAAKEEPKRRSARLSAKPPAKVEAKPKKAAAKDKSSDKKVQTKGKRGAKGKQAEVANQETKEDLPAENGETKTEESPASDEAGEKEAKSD

[20] = target: complement component 3 precursor (Homo sapiens) (UniProt P01024)
[21] = target: KIAA1330 protein (Homo sapiens) (UniProt Q96L96)
[22] = target: target of myb1 (Homo sapiens) (UniProt O60784)
[23] = target: titin isoform novex-2 (Homo sapiens) (UniProt Q8WZ42)
[24] = target: tripartite motif protein TRIM14 isoform alpha (Homo sapiens) (UniProt Q14142)
[25] = target: insulin-like 6 precursor (Homo sapiens) (UniProt Q9Y581)
Chain of insulin-like 6 precursor (Homo sapiens) (Q9Y581 21-213 limits assumed): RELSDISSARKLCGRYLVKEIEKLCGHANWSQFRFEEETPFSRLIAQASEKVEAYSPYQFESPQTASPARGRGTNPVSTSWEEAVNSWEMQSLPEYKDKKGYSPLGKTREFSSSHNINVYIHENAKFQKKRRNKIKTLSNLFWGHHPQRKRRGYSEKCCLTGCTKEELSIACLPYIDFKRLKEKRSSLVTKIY

dendrin (Homo sapiens) = dendrin (Homo sapiens) (UniProt O94850)
Chain of dendrin (Homo sapiens) (O94850 whole entry): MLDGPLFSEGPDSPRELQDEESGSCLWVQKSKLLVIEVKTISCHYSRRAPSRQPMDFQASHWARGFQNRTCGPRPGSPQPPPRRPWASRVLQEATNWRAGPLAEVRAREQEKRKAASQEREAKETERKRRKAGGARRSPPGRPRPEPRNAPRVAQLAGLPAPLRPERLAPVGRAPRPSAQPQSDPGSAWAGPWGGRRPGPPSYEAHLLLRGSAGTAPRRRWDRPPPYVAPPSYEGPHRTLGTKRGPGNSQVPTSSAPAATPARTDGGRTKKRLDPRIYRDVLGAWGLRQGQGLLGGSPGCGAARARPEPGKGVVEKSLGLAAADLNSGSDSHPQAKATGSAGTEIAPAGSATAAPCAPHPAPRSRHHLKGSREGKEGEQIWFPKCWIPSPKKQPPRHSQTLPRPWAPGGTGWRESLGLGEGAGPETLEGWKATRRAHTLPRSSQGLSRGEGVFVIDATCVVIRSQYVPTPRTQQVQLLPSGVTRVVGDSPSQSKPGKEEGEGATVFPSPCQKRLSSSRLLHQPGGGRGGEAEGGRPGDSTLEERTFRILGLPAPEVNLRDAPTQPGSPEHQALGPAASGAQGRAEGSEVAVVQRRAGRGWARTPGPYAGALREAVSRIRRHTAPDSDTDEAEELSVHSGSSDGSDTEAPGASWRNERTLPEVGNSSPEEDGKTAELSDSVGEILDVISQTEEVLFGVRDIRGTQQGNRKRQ

[26] = target: LUC7-liKe 2 (Homo sapiens) (UniProt Q9Y383)
[27] = target: myocardin-related transcription factor B (Homo sapiens) (UniProt Q9ULH7)
[28] = target: peroxisome biogenesis factor 13 (Homo sapiens) (UniProt Q92968)
[29] = target: similar to BC331191_1 (Homo sapiens)
[30] = target: zinc finger protein 28 (Homo sapiens) (UniProt Q8NHY6)
[31] = target: Hpall tiny fragments locus 9C isoform2 (Homo sapiens) (UniProt Q8IZ69)
[32] = target: chondroitin sulfate proteoglycan 6 (bamacan) (Homo sapiens) (UniProt Q9UQE7)

Chain of GroEL having Aspartate 490 substituted with Cysteine, biotinylated and conjugated onto NeutrAvidin beads (A1AJ51 whole entry D490C): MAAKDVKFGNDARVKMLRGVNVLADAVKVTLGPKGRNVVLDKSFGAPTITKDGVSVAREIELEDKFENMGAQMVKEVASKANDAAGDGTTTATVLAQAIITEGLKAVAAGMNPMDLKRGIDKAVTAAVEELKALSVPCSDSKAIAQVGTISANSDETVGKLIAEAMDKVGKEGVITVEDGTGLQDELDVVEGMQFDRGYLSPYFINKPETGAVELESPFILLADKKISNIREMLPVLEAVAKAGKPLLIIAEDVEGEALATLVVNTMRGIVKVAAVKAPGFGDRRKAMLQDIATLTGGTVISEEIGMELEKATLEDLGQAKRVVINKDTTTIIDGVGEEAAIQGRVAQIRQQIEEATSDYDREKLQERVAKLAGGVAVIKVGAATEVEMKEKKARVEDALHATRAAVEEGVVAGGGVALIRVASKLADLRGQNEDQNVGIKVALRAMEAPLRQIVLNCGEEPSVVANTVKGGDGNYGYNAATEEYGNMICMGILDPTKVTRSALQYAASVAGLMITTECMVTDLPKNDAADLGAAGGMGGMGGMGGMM

For “GroEL having Aspartate 490 substituted with Cysteine, biotinylated and conjugated onto NeutrAvidin beads (from UniProt A1AJ51 1-548)”, the Spectrum Count [1] was 14 count, the Spectrum Count [2] was 14 count and the Spectrum Count [3] was 9 count. The Spectrum Count [4] was 13 count, the Spectrum Count [5] was 13 count and the Spectrum Count [6] was 13 count. It also gave a Spectrum Count [7] of 60 count, a Spectrum Count [8] of 20 count and a Spectrum Count [9] of 24 count. It also gave a Spectrum Count [10] of 30 count, a Spectrum Count [11] of 9 count and a Spectrum Count [12] of 14 count. For the same substance, the Spectrum Count [13] was 22 count, the Spectrum Count [14] was 13 count and the Spectrum Count [15] was 12 count. It also gave a Spectrum Count [16] of 19 count, a Spectrum Count [17] of 11 count and a Spectrum Count [18] of 9 count. For the same substance, the Spectrum Count [19] was 13 count, the Spectrum Count [20] was 43 count and the Spectrum Count [21] was 13 count. For the same substance, the Spectrum Count [22] was 30 count, the Spectrum Count [23] was 56 count and the Spectrum Count [24] was 21 count. For the same substance, the Spectrum Count [25] was 13 count, the Spectrum Count (dendrin (Homo sapiens)) was 14 count and the Spectrum Count [26] was 15 count. The Spectrum Count [27] was 16 count, the Spectrum Count [28] was 38 count and the Spectrum Count [29] was 19 count. For the same substance, the Spectrum Count [30] was 18 count, the Spectrum Count [31] was 34 count and the Spectrum Count [32] was 9 count.
